# Test results: the RNAGym collection of RNA variant scans (doi:10.1073/pnas.2313332121)
# B1: TPR t1 (parent)
# chain: GACCAAUCUGCCCUCAGAGCUCGAGAACAUCUUCGGAUGCAGAGGAGGCAGGCUUCGGUGGCGCGAUAGCGCCAACGUCCUCAACCUCCAAUGCAUCCCACCACAUGAUGAUGCCUGAAGAGCCUUGGUUUUUUG
# Variants of: B1
# Test: polymerase ribozyme fitness, log enrichment relative to wild type (log ratio); higher = more active; in vitro selection for triplet polymerase activity
# In short: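 Only genotypes with ≥10 input reads and ≥1 read per output were kept after Illumina sequencing of input and output libraries. These libraries were PCR-built, transcribed mutants of each subunit of a heterodimeric triplet polymerase ribozyme, each put through one triplicate in vitro selection round with frozen incubation at −7 °C, gel excision of extended constructs, streptavidin-bead capture and RT-PCR. Fitness is a logarithmic ratio of genotype enrichment to wild-type enrichment, from inverse-variance-weighted replicate averages, with the logarithm in base 2.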
row,Variant,polymerase ribozyme fitness (log ratio)
1,A5U G63U G65C C80U C85U A95G C97U C115U,-6.48
2,A6C G71C C79U,-0.784
3,C4U G42U U59A,-2.49
4,A5U A6U C62G C104U,-1.25
5,A5C C12G C49A C56A A83C,-1.46
6,A5U C31A G71A A84C C124A,-6.43
7,A5C A74C,-1.06
8,A6C A18U G52C C79U C89U C101U,-2.96
9,A5U C72G,-0.174
10,A5U G113C U125G U132A,-1.99
11,A5G C64U,0.17
12,A5C U7G U54A G110C,-4.81
13,A5G C104U G117C U130G,-3.77
14,A5G G44C C82A,-2.23
15,A5U G71C U106G,-3.95
16,A5G C13A C20U U129C,-4.45
17,A6G C62U C73U U112G,0.725
18,A5U U32C C124G G128U,-0.425
19,A5G C40A G120U,-0.337
20,A5G C40U G69U A100G,-1.21
21,A5C C40U U67C C104G C123G G128A,-6.57
22,A6C A18U G47U U125G,-3.87
23,A5C C88G G127A,-2.6
24,A5U C64G C88G C104A A121G,-7.55

row,Variant,polymerase ribozyme fitness (log ratio)
1,A5G C13U C98U G128U,-3.14
2,A5C G63A U81A,-2.31
3,A5G C12U G35A G71A U78A C85G C124A,-5.49
4,C4U U7A C11A,-0.665
5,A5G A91C,-1.57
6,A5G A41C,-0.911
7,A5C C22U C89A A121G,-4.41
8,A5U G48U C56U G93A,-0.937
9,A6G C80U C115G,-1.33
10,A5U C56A,-0.829
11,A5G C124A,1.03
12,A5G G36U G61A A111C A119C,-2.68
13,A5C C89G C114G U126C U131A,-5.03
14,A6C G48U C53U U59G C70U A90C,-4.07
15,A5C G51C G77A C80G,-0.996
16,A5G C12A G45A U78C C88A,-0.938
17,A6C C8A G60A U87A,-0.0712
18,A5G C62A G117C,-4.86
19,A6C G19A A41C C70A,-4.25
20,A6G C12U G58A G113C,-1.75
21,C4U G63U,-1.66
22,A5U A6G A46C G61A C115G,-2.35
23,A5G A26U,-2.44
24,A5C C104U,-1.05

row,Variant,polymerase ribozyme fitness (log ratio)
1,A5U A95U,-1.24
2,A5U G45U,-1.13
3,A5U G45A,-1.11
4,A5U U92C,-1.56
5,A5C C12A A27U,-4.25
6,A5G C104A G113C,-4.37
7,A5G C40A C72U G110U,-3.65
8,A6C C70U,-0.65
9,A6C C70G,-2.95
10,A5C C11U A43U U59C G60A,-4.12
11,A5U C11G C64U U78C U126C,-0.928
12,A6C G63A U87G C88A,-1.25
13,A5G C20U U38G G110U,-4.64
14,A5G C11A C70G U81C,-4.45
15,A5C G71U,-0.21
16,A5U A18C,-1.31
17,A6C A46U C56U,-1.22
18,A5G G135U,-1.22
19,A6C G44U C64U U96A C104A,-3.82
20,A6C A37U G47U G52U G63C C124U,-4.06
21,A5U C53A C72U C104U G113C,-2.38
22,A5U C88G G117A G120C,-4.11
23,A5G A111G G122U,-2.04
24,A5U G17A C49A G60A C89U,-5.58

row,Variant,polymerase ribozyme fitness (log ratio)
1,A5C U7C G63U C94G G113C A118C,-6.82
2,A6C A18C C49U C70U C82U,-5.19
3,A6C C40G C56G,-2.36
4,A5U C40A C115G G120A,-3.72
5,C4U U7G C11G C13A C56U U87A U112A,1.5
6,A6G C13G A111C U112A,-1.87
7,A5U G45C G60A,-0.71
8,A5C C8G A26U,-1.68
9,A5C C8U A16U G45U G63A,-2.38
10,A5U C12U U125A,-0.727
11,A6C A50U C76G U96G,-2.15
12,C4U C86U C101G,-1.82
13,A5U U129A,-1.34
14,A5C A74G C85A C104U,-0.8
15,A5C A84U,-1.12
16,A5U G44U C72A A91C G113C U126G G128A,-5.74
17,A5G C12A U38A G60A A121C G135U,0.199
18,A6C C104A,-1.61
19,A5C U78C C101U,-1.23
20,A5U C72G G117A,-1.96
21,C4U C76G C114U U129A,-4.95
22,A5C A37C C70U G110U,-4.1
23,A5C C12A,-0.824
24,A5G G42U C115U,-1.79

row,Variant,polymerase ribozyme fitness (log ratio)
1,C4U C72G C94G G113A G122U,-3.87
2,A6C A50C G127A G128U,-3.5
3,C4U C70G,-2.23
4,A5G A18G G44C G48C U55C U59G G69U G117U,-5.43
5,A5U G52U U112G,-0.382
6,C4U U81A,-1.77
7,A6C C79A,-0.901
8,A5U A83C,-0.98
9,A5U G39U G47C C72U,-4.21
10,C4U G69U G93U,-1.17
11,A5U U81A A90C U92C,-3.49
12,A6C A43G U78G A91G,-2.53
13,C4U G36U,-1.82
14,A5G G19A C72U U87A G117U,-4.71
15,A5U G10A G17C,-4.03
16,A5C C12G C114G,-5.39
17,A5C C8G U33G C97U,-5.64
18,A5C G71A U132A,-1.18
19,A5U U7A C40G U55G C56U G60A,-3.04
20,A5G A18G G117U U125A,-2.93
21,C4U U7C A43U C70U C85A U92G G120C,-5.06
22,A6C C20A A26C G60A U116C U132C,-7.63
23,A6C A83C C97U G110A,-1.92
24,A6G C12U G69C U112C C123A U131A,0.491

row,Variant,polymerase ribozyme fitness (log ratio)
1,A5C C89A A111C,-3.6
2,A5U C15U A16U U125A,-4.8
3,A6G C11A C34A G47A A111C,-5.04
4,A5U C11A G58U C70U C101U,-2.57
5,A5C C11U G122A,0.875
6,A5G U112C C124G G128A,-0.522
7,A5U C31U G110C,-6.73
8,A5C G63A C79U,-1.41
9,A6G C11A U14A C28A G69U U78C,-3.37
10,A5U C22G A66U U112A U126G,-3.51
11,A5C C12A C73U,-0.891
12,A6G C98U U125G,-3.71
13,A5G U112A G127U,0.804
14,A6G C11G G52U U59A G60C,-0.455
15,A5U G57A,-0.568
16,A5U A41U G61A C82G G120A U125G,-2.7
17,A5U A16C,-2.72
18,A6C G10A C13U G36U G51U G77C A90C G120U,-4.97
19,A5C U32C A41G G60A U78A U96A,-2.78
20,A5G A18U C28U,-4.63
21,A6C C13A G48C C49G,-3.01
22,A5U C12U U78C C80U,-1.23
23,A6G C13U G19U C56A,-3.79
24,A5C C40A C64U C89U C102U U106A,-7.21

row,Variant,polymerase ribozyme fitness (log ratio)
1,A6C G69U U78C,0.0885
2,A6G C8G G69U,0.471
3,A5G C8G,-0.847
4,C4U C72A C85U C102U A121G U133A,0.405
5,C4U G44U C76A G77U A91C G120A,-2.7
6,A6C G48U U87C G110U,-2
7,A5U C72U G128U,-2.15
8,A5U A43U G63A,-3.99
9,A5U C8G G63U,-0.752
10,A5U G69U A91C G113A U116C U130C,-5.42
11,C4U U92A,-4.01
12,A5U C124A,2.04
13,A5G C15U C49U C62A C123A,-2.06
14,A5U C70A C97U U125A,-2.48
15,C4U G48U G52U A90U C124G,-1.92
16,A5U C86G,-1.26
17,A5U G51A,-3.23
18,A6C C73U C85A C114U,-3.29
19,A6C G52C,-0.394
20,A5U C88G G120C,0.286
21,A5G G51U A83U A121C,-3.06
22,A5G U14A C73U,-2.23
23,A5G C8U C34A C62U G117A,-5.35
